Read-outs that look alike come from different tables or passages of the source. Ends that are not written are not given here. Peptide text beside a SMILES is read from it. * marks the point of attachment. X1 = C=CC1=C(C)c2cc3[nH]c(cc4nc(cc5[nH]c(cc1n2)c(C)c5CCC(=O)*)C(CCC(=O)O)=C4C)c(C)c3C=C; X3 = C=CC1=C(C)c2cc3[nH]c(cc4nc(cc5[nH]c(cc1n2)c(C)c5CCC(=O)O)C(CCC(=O)*)=C4C)c(C)c3C=C; X2 = CCC1=C(C)c2cc3[nH]c(cc4nc(cc5[nH]c(cc1n2)c(C)c5CCC(=O)O)C(CCC(=O)*)=C4C)c(C)c3CC; X4 = CCC1=C(C)c2cc3[nH]c(cc4nc(cc5[nH]c(cc1n2)c(C)c5CCC(=O)*)C(CCC(=O)O)=C4C)c(C)c3CC
What was measured:
HBEC-5i cells [1] = details: concentrations of up to 50 µM, 24 h
Description: (§2) HBEC-5i cells and JEG-3 cells were plated in attachment factor protein and rat-tail collagen, respectively, pre-coated 96-well flat bottom clear, black polystyrene plate (Corning, New York, USA). Afterwards cells were cultured in complete medium at 37 °C in a 5% CO2 atmosphere, with medium replaced every 2 days. When the cellular monolayer was formed, cells were treated with various concentrations of conjugates in the 6.25-50 µM range, for 24 h at 37 °C in a 5% CO2 atmosphere. Viability was evaluated by the CellTiter-Blue® assay (Promega, WI, USA), based on resazurin reduction into highly fluorescent resorufin by metabolically active cells. By distinguishing metabolic from non-metabolic cells, cytotoxicity can be indirectly determined. After incubation, cells were washed with PBS, pH 7.4, and 15 µL of CellTiterBlue® reagent in 100 µL of complete medium was added to the cells and incubated for 1.5 h at 37 °C in 5% CO2. Fluorescence (λex=560 nm, λem=590 nm), was measured in a Varioskan Lux plate reader. Complete medium and medium containing 0.25% Triton X-100 were used as positive and negative controls (100 and 0% viability), respectively. Cell viability (%) was determined as: Cell viability(%) = (F_treated−F_blank)/(F_(nontreated)−F_blank) × 100 [formula] where Ftreated is the fluorescence intensity of cells treated with a conjugate, Fnon treated is the fluorescence of untreated cells and Fblank is the fluorescence of CellTiterBlue® reagent in complete medium without cells.

JEG-3 cells [2] = details: FD4 content in basolateral side after 24 h incubation with compound, then 2 h FD4; untreated BPB 1.23%
Description: (§3) After 24 h incubation with conjugates in the set-up shown in Figure 1, an in vitro integrity assay was performed. HBEC-5i (for BBB) or JEG-3 (for BPB) cells were washed twice with PBS and once with a medium without phenol red. DMEM:F12 medium was used with HBEC-5i cells and EMEM medium was used with JEG-3 cells. Then, previously diluted 4 kDa fluorescein isothiocyanate-dextran (FD4) (Sigma-Aldrich, Spain) in the medium indicated above for each cell line and without phenol red to an absorbance of 0.1 was added to the apical side (1) and incubated for 2 h. Samples were collected at the basolateral side (2), and fluorescence intensity was measured at λex=493 nm and λem=520 nm using a Varioskan Lux plate reader. Barrier integrity was evaluated from FD4 permeability as follows: FD4 Permeability(%) = (Fi −Fcells)/(FFD4 −FMedium) × 100 [formula] where Fi is the fluorescence intensity of the sample at the basolateral side (2), Fcells is the intrinsic fluorescence intensity of cells without FD4 incubation, FFD4 is the intensity of FD4 stock initially added to the apical side (1), and FMedium is the intensity of the medium indicated above for each cell line and without phenol red.
JEG-3 cells were cultured as a monolayer on T-flasks in EMEM supplemented with 10% (v/v) FBS and 1% (v/v) Pen-Strep. Cells were grown in a humidified atmosphere of 5% CO2 at 37 °C with the medium changed every other day. Cells were allowed to grow until confluence in a culture T-flask, then carefully harvested with trypsin-EDTA and seeded (3000 cells/well) onto rat-tail collagen-coated tissue culture 24-well inserts (4). A cellular monolayer (3) with low permeability was formed 5 days after the incubation on the tissue culture insert (4).

JEG-3 cells [3] = details: 10 µM on apical side, 24 h incubation; percentage of compound in the basolateral side
Description: (§4) Conjugate translocation was determined by fluorescence intensity (λex= 410 nm, λem = 625 nm for MP conjugates; λex=410 nm, λem=635 nm for PP conjugates). […] After 24 h incubation, samples from the basolateral side (2) were collected and analyzed. Fluorescence was measured in a Varioskan Lux plate reader (Thermo Scientific). PPC translocation (%) was calculated as follows: PPC translocation(%) = (F_i−Fcells)/(F_PPC−F_Medium) × 100 [formula] where Fi is the fluorescence intensity of the sample collected at the basolateral side (2), Fcells is the intrinsic fluorescence intensity of cells without incubation with a peptide-protein conjugate PPC, FPPC is the intensity of total PPC initially added to the transwell apical side (1), and FMedium is the intensity of DMEM:F12 medium without phenol red.
JEG-3 cells were cultured as a monolayer on T-flasks in EMEM supplemented with 10% (v/v) FBS and 1% (v/v) Pen-Strep. Cells were grown in a humidified atmosphere of 5% CO2 at 37 °C with the medium changed every other day. Cells were allowed to grow until confluence in a culture T-flask, then carefully harvested with trypsin-EDTA and seeded (3000 cells/well) onto rat-tail collagen-coated tissue culture 24-well inserts (4). A cellular monolayer (3) with low permeability was formed 5 days after the incubation on the tissue culture insert (4). BPB translocation and integrity measurement methods are identical to those for the BBB in vitro model defined above.

HBEC-5i cells [4] = details: FD4 content in basolateral side after 24 h incubation with compound, then 2 h FD4; untreated BBB 10.3%
Description: as §3

JEG-3 cells [5] = details: JEG-3, concentrations of up to 50 µM, 24 h
Description: as §2

[6] = Serum stability in human serum; type: in vitro ADME; details: for half-life at 0.05 mM: human serum (1:1 v/v with HEPES buffer), pH 7.8, 37 °C, read-out: Serum half-life time (converted)
Description: Next, 600 µL of the solution comprising the conjugate or peptide were mixed (1:1 v/v) with 600 µL of human serum, to reach a final concentration of 0.05 mM. The mixture was incubated at 37 °C and, at various time points, 50 µL (in triplicate) were taken and precipitated with 200 µL cold methanol. The samples were centrifuged at 13000 rpm, 10 min, +4 °C. Afterwards, 50 µL of each supernatant were injected on an LC-20AD instrument (Shimadzu) equipped with a Luna C18 column (4.6 mm × 50 mm, 3 µm, Phenomenex, USA) and analyzed using a 0%-95% linear gradient of MeCN into 0.1% TFA in H2O over 15 min with 1 mL/min flow rate. PDA detection at 220 nm and 401 nm was used and the half-life times were calculated by peak area integration at 401 nm, the λmax of MP and PP. Controls included blank serum (25 µL each of 1:1 v/v serum + HEPES buffer, then precipitation with 200 µL cold methanol), untreated conjugate/peptide (25 µL of 0.1 mM stock in HEPES buffer + 25 µL HEPES buffer, then precipitation with 200 µL cold methanol), and a zero-time sample (200 µL cold methanol + 25 µL serum + 25 µL 0.1 mM conjugate/peptide stock), the conjugate/peptide added last to avoid any contact with protease. Controls were analyzed by LC and LC-MS as described above.

HBEC-5i cells [7] = details: 10 µM on apical side, 24 h incubation; percentage of compound in the basolateral side
Description: HBEC-5i cells were cultured as a monolayer (3) on T-flasks in DMEM:F12 supplemented with 10% (v/v) FBS, 1% (v/v) Pen-Strep and 1% (v/v) ECGS. Cells were grown in a humidified atmosphere of 5% CO2 at 37 °C (MCO-18AIC (UV), Sanyo, Japan) with the medium changed every other day. Cells were allowed to grow until confluence in a culture T-flask, then carefully harvested with trypsin-EDTA and seeded (8000 cells/well) into tissue culture 24-well inserts (4) (transparent polyester membrane with 1.0 µm pores) (BD Falcon, USA) pre-coated with attachment factor protein solution. The medium was changed every other day for 5-8 days, afterwards cells were washed with 1 × PBS followed by DMEM:F12 medium without phenol red. Next, the conjugates were diluted in DMEM:F12 without phenol red, until reaching a final 10 µM concentration, and were added to the apical side (1) of the in vitro BBB model.
as §4

ZIKV^BR [8] = details: virus pre-treated 1 h at 37 °C, in the dark, 0.01-50 µM
Description: ZIKV^BR was propagated in C6/36 cells using a multiplicity of infection (MOI) of 0.01. After infection, cells were cultured for 7 days. The culture medium collected from the infected cultures was centrifuged at 700 g to remove cellular debris, stored in aliquots at -80 °C and titrated by plaque assay.
To determine the effect of conjugates on ZIKV^BR as prepared above, 10^5 plaque forming units (PFU) were pre-treated with different concentrations of conjugates in the 0.01-50 µM range for 1 h at 37 °C, in the dark. After treatment, viral samples were serially diluted (10-fold) for titration by plaque assay. Samples were incubated for 1 h at 37 °C and 5% CO2 with Vero cells. After infection, the medium was removed and 1 mL DMEM containing 1% (v/v) FBS, 100 U/mL penicillin, 100 µg/mL streptomycin and 1.5% carboxymethylcellulose was added to each well. The plates were incubated at 37 °C and 5% CO2. After 5 days cells were fixed by 1 mL of 4% (v/v) formaldehyde in H2O for 30 min. Each plate was washed and stained with a 1% (v/v) crystal violet, 20% (v/v) ethanol solution. The number of plaques on each well was counted and corrected for well dilution to determine the pfu/mL number. The half-maximum inhibitory concentration (IC50) was determined by non-linear regression with sigmoidal profile and variable slope using the software Graphpad Prism (version 6.0), only on treatments that achieved total inhibition.

JEG-3 cells [9] = assay: in vitro BPB integrity assay (FD4 permeability) after translocation assay; type: cell-based
HBEC-5i cells [10] = tested on: HBEC-5i cells
Description: as §3

HBEC-5i cells [11] = type: in vitro ADME; details: human, 24 h, 10 µM
Description: (§1) PPC translocation (%) was calculated as follows: […]

JEG-3 cells [12] = type: in vitro ADME; details: human, 24 h, 10 µM
Description: as §1

ZIKV^BR [13] = assay: ZIKV inactivation assay (plaque assay on Vero cells); type: cell-based, Zika virus; details: virus pre-treated 1 h at 37 °C, in the dark, 0.01-50 µM
ZIKV = details: read-out: IC50 value for inactivation of ZIKV, cited from earlier work

Molecule	altered cell viability (HBEC-5i cells [1])	BPB FD4 (%) (JEG-3 cells [2])	BPB translocation (%) (JEG-3 cells [3])	BBB FD4 (%) (HBEC-5i cells [4])	altered cell viability (JEG-3 cells [5])	half-life at 0.05 mM [6]	BBB translocation (%) (HBEC-5i cells [7])	IC50 (ZIKV^BR [8])	other results
CCC1=C(C)c2cc3[nH]c(cc4nc(cc5[nH]c(cc1n2)c(C)c5CCC(=O)O)C(CCC(=O)NCCCC[C@H](NC(=O)[C@H](Cc1ccc(O)cc1)NC(=O)[C@H](CCC(=O)O)NC(=O)[C@H](CCC(=O)O)NC(=O)[C@H](CCC(N)=O)NC(=O)[C@@H](NC(=O)CNC(=O)[C@@H](N)CO)[C@@H](C)O)C(N)=O)=C4C)c(C)c3CC [Compound P4-MP] (H-SGTQEEYK(X2)-NH2)	none	1.1%	13%	15.6%	none	3 h	45.8%	> 50 µM	
C=CC1=C(C)c2cc3[nH]c(cc4nc(cc5[nH]c(cc1n2)c(C)c5CCC(=O)O)C(CCC(=O)O)=C4C)c(C)c3C=C [PP, protoporphyrin IX]									BPB FD4 (%) (JEG-3 cells [9]; human, 2 h, 10 µM): 0.87%; BBB FD4 (%) (HBEC-5i cells [10]; human, 2 h, 10 µM): 24.7%; BBB translocation (%) (HBEC-5i cells [11]): 47.8%; BPB translocation (%) (JEG-3 cells [12]): 14.2%; IC50 (ZIKV^BR [13]; Zika virus, Vero): > 50 µM
C=CC1=C(C)c2cc3[nH]c(cc4nc(cc5[nH]c(cc1n2)c(C)c5CCC(=O)O)C(CCC(=O)N[C@@H](CO)C(=O)NCC(=O)N[C@H](C(=O)N[C@@H](CCC(N)=O)C(=O)N[C@@H](CCC(=O)O)C(=O)N[C@@H](CCC(=O)O)C(=O)N[C@@H](Cc1ccc(O)cc1)C(N)=O)[C@@H](C)O)=C4C)c(C)c3C=C [PP-P3] (X3-SGTQEEY-NH2)	none	1.79%	18.9%	9.6%	none	3.7 h	43.2%	> 50 µM	
C=Cc1c(C)c2cc3[nH]c(cc4nc(cc5nc(cc1[nH]2)C(C)=C5CCC(=O)[O-])C(CCC(=O)[O-])=C4C)c(C)c3C=C.[Co+2] [CoPPIX]									IC50 (ZIKV; with light activation): 5.79 µM; IC50 (ZIKV; without light activation): 2.49 µM
C=CC1=C(C)c2cc3[nH]c(cc4nc(cc5[nH]c(cc1n2)c(C)c5CCC(=O)N[C@H](C(=O)N[C@@H](CCC(N)=O)C(=O)N[C@@H](CCC(N)=O)C(=O)N[C@@H](CC(C)C)C(=O)N[C@H](C(=O)N[C@@H](CCCCN)C(=O)N[C@@H](CCCNC(=N)N)C(=O)N[C@@H](Cc1ccccc1)C(=O)N[C@@H](CO)C(=O)N[C@@H](CC(C)C)C(N)=O)[C@@H](C)O)C(C)C)C(CCC(=O)O)=C4C)c(C)c3C=C [(I)] (X1-VQQLTKRFSL-NH2)	none	0.83%	21.2%	13.6%	none	22.2 h	43.6%		
CCC1=C(C)c2cc3[nH]c(cc4[nH]c(cc5nc(cc1n2)C(C)=C5CC)c(C)c4CCC(=O)O)c(CCC(=O)O)c3C [MP, mesoporphyrin IX]									BPB FD4 (%) (JEG-3 cells [9]): 1.68%; BBB FD4 (%) (HBEC-5i cells [10]): 17.9%; IC50 (ZIKV^BR [13]): > 50 µM
CCC1=C(C)c2cc3[nH]c(cc4nc(cc5[nH]c(cc1n2)c(C)c5CCC(=O)N[C@@H](CO)C(=O)NCC(=O)N[C@H](C(=O)N[C@@H](CCC(N)=O)C(=O)N[C@@H](CCC(=O)O)C(=O)N[C@@H](CCC(=O)O)C(=O)N[C@@H](Cc1ccc(O)cc1)C(N)=O)[C@@H](C)O)C(CCC(=O)O)=C4C)c(C)c3CC [MP-P3] (X4-SGTQEEY-NH2)	none	1.17%	14.2%	14.6%	none	21.1 h	46.6%	25.1 µM	
CCC1=C(C)c2cc3[nH]c(cc4nc(cc5[nH]c(cc1n2)c(C)c5CCC(=O)N[C@H](C(=O)N[C@@H](CCC(N)=O)C(=O)N[C@@H](CCC(N)=O)C(=O)N[C@@H](CC(C)C)C(=O)N[C@H](C(=O)N[C@@H](CCCCN)C(=O)N[C@@H](CCCNC(=N)N)C(=O)N[C@@H](Cc1ccccc1)C(=O)N[C@@H](CO)C(=O)N[C@@H](CC(C)C)C(N)=O)[C@@H](C)O)C(C)C)C(CCC(=O)O)=C4C)c(C)c3CC [MP-P1] (X4-VQQLTKRFSL-NH2)	none	1.16%	6.9%	19.9%	none	16.2 h	30%	> 50 µM	
CCC1=C(C)c2cc3[nH]c(cc4nc(cc5[nH]c(cc1n2)c(C)c5CCC(=O)O)C(CCC(=O)NCCCC[C@H](NC(=O)[C@H](CC(C)C)NC(=O)[C@H](CO)NC(=O)[C@H](Cc1ccccc1)NC(=O)[C@H](CCCNC(=N)N)NC(=O)[C@H](CCCCN)NC(=O)[C@@H](NC(=O)[C@H](CC(C)C)NC(=O)[C@H](CCC(N)=O)NC(=O)[C@H](CCC(N)=O)NC(=O)[C@@H](N)C(C)C)[C@@H](C)O)C(N)=O)=C4C)c(C)c3CC [Compound P2-MP] (H-VQQLTKRFSLK(X2)-NH2)	none	1.30%	6.9%	14.5%	none	10.7 h	25.5%	> 50 µM	
C=CC1=C(C)c2cc3[nH]c(cc4nc(cc5[nH]c(cc1n2)c(C)c5CCC(=O)NCCCC[C@H](NC(=O)[C@H](CC(C)C)NC(=O)[C@H](CO)NC(=O)[C@H](Cc1ccccc1)NC(=O)[C@H](CCCNC(=N)N)NC(=O)[C@H](CCCCN)NC(=O)[C@@H](NC(=O)[C@H](CC(C)C)NC(=O)[C@H](CCC(N)=O)NC(=O)[C@H](CCC(N)=O)NC(=O)[C@@H](N)C(C)C)[C@@H](C)O)C(N)=O)C(CCC(=O)O)=C4C)c(C)c3C=C [Compound P2-PP] (H-VQQLTKRFSLK(X1)-NH2)	none	0.90%	7.9%	13.7%	none	3.6 h	35.1%	> 50 µM	
C=CC1=C(C)c2cc3[nH]c(cc4nc(cc5[nH]c(cc1n2)c(C)c5CCC(=O)O)C(CCC(=O)NCCCC[C@H](NC(=O)[C@H](Cc1ccc(O)cc1)NC(=O)[C@H](CCC(=O)O)NC(=O)[C@H](CCC(=O)O)NC(=O)[C@H](CCC(N)=O)NC(=O)[C@@H](NC(=O)CNC(=O)[C@@H](N)CO)[C@@H](C)O)C(N)=O)=C4C)c(C)c3C=C [Compound P4-PP] (H-SGTQEEYK(X3)-NH2)	none	1.2%	15.6%	10.6%	none	3.3 h	42.8%	> 50 µM	
VQQLTKRFSL-NH2 [Peptide having SEQ ID NO1, reference compound]									Serum half-life time ([6]; 0.05 mM, 37 °C): 0.73 h
